Laboratory results reported in publication PMC9987972, “Interaction of the periplasmic chaperone SurA with the inner membrane protein secretion (SEC) machinery” (Biochemical Journal, 2023).

T1: SurA (E. coli), P0ABZ6
T1 chain: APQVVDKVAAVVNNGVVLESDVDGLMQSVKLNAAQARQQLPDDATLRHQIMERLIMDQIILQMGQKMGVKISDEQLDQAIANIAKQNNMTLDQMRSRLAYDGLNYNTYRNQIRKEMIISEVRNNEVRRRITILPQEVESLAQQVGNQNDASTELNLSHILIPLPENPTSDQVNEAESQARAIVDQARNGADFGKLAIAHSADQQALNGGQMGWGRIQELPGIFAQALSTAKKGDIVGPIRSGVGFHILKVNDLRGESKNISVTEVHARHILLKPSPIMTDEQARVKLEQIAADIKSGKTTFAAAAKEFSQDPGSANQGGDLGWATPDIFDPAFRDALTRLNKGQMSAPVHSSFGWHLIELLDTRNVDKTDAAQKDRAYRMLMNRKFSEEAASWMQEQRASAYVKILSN

B1: SurA, P0ABZ6 21-428 (natural protein)
chain: T1 chain
B2: SurA–OmpA complex (complex)
chain 1: T1 chain
chain 2: APKDNTWYTGAKLGWSQYHDTGFINNNGPTHENQLGAGAFGGYQVNPYVGFEMGYDWLGRMPYKGSVENGAYKAQGVQLTAKLGYPITDDLDIYTRLGGMVWRADTKSNVYGKNHDTGVSPVFAGGVEYAITPEIATRLEYQWTNNIGDAHTIGTRPDNGMLSLGVSYRFGQGEAAPVVAPAPAPAPEVQTKHFTLKSDVLFNFNKATLKPEGQAALDQLYSQLSNLDPKDGSVVVLGYTDRIGSDAYNQGLSERRAQSVVDYLISKGIPADKISARGMGESNPVTGNTCDNVKQRAALIDCLAPDRRVEIEVKGIKDVVTQPQA
notes: SurA, periplasmic chaperone, E. coli; as the chain of m2; OmpA, outer membrane protein, from pET11a-ompA; also called substrate-engaged SurA; occupied chaperone; source: E. coli BL21(DE3), made separately; OmpA pellet in 6 M urea mixed with SurA supernatant, urea dialysed away, purified (HisTrap, HiTrap Q; S200 SEC for the size exclusion experiments)

Key:
SurA (E. coli), P0ABZ6 = target: T1, SurA (E. coli), P0ABZ6; experiment: native gel or EMSA; NativePAGE Bis-Tris 3–12%; HTL 3.8 µM with SurA or SurA:OmpA at 1:3 molar ratio, or each alone, in TS130G (20 mM Tris-HCl pH ≈ 8, 130 mM NaCl, 10% glycerol) + 0.01% DDM-CL, 30 min at 30°C; bands excised and analysed by SDS–PAGE with silver staining; conditions: remark: other sources report otherwise
[1] = target: the molecule itself; experiment: as above

Binder	stoichiometry N (SurA (E. coli), P0ABZ6)	stoichiometry N [1]
B1	2	–
B2	–	2
